According to patent US20080267949A1, “Peptides capable of binding to serum proteins” (Ablynx N.V., priority 2006, published 2008):
Bridge positions count the residues as written; N and C are the ends. Ends that are not written are not given here.

T1: ovalbumin (Gallus gallus, UniProt P01012)
T1 construct: purchased Sigma A5378
T1 sequence (P01012 1-386): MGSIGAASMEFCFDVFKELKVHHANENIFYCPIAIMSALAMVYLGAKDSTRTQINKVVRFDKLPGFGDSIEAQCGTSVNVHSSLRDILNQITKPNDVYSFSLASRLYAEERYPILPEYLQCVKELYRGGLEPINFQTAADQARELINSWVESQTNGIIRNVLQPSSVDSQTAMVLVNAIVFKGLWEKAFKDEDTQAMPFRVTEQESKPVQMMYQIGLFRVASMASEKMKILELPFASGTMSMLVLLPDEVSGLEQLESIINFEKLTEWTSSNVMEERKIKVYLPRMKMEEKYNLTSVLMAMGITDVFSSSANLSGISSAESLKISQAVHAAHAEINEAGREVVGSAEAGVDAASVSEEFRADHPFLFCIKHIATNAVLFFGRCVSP

T2: ovalbumin (negative control antigen) (UniProt P01012 2-386)
T2 construct: Bought protein
T2 sequence (looked up): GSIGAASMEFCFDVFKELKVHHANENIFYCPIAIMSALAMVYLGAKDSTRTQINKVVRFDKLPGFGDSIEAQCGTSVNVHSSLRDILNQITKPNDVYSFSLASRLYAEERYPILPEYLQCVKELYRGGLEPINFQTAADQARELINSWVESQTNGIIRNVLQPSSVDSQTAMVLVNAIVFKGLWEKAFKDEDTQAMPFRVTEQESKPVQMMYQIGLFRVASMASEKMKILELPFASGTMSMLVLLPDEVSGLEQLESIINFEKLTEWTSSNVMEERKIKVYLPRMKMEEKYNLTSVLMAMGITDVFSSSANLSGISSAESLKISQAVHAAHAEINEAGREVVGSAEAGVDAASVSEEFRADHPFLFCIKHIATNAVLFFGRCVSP

B1: 2D3-17D12(S): 17D12 peptide (FR3 Cys replaced with Ser) fused at the C-terminus of VHH 2D3 without linker, expressed on pIII of M13 phage (other, not shown: large carriers)
chain: DTAVYYSNAAASYSDYDVFGGGTDFGPWGQGTQV
modifications: not fully specified (N-terminus); also: fused to C-terminus of VHH 2D3, displayed on M13 pIII
notes: VHH-peptide fusion tested as phage; also called VHH-17D12(S)
B2: 17D12-CDR3-C, constrained truncated CDR3 loop of 17D12 without flanking FR, expressed on pIII of M13 phage (peptide, not shown: large carriers)
peptide: CAAASYSDYDVFGGGTDFGPAC
modifications: disulfide 1-22; not fully specified
notes: Tested as phage; also called constrained truncated peptide
B3: 2D3-GlySer-17D12(S): 17D12 peptide (FR3 Cys replaced with Ser) fused at the C-terminus of VHH 2D3 via a Gly4Ser-Gly3Ser linker, expressed on pIII of M13 phage (other, not shown: large carriers)
chain: GGGGSGGGSDTAVYYSNAAASYSDYDVFGGGTDFGPWGQGTQV
modifications: not fully specified (N-terminus); also: fused to C-terminus of VHH 2D3, displayed on M13 pIII
notes: VHH-peptide fusion tested as phage; also called VHH-GlySer-17D12(S)

Legend:
[1] = biological target: T3, bovine serum albumin (BSA) (Bos taurus, UniProt P02769); test: Phage binding assay, cross-reactivity to bovine serum albumin; details: different phage concentrations
T3 construct: purchased Sigma A6003
T3 sequence (P02769 25-607): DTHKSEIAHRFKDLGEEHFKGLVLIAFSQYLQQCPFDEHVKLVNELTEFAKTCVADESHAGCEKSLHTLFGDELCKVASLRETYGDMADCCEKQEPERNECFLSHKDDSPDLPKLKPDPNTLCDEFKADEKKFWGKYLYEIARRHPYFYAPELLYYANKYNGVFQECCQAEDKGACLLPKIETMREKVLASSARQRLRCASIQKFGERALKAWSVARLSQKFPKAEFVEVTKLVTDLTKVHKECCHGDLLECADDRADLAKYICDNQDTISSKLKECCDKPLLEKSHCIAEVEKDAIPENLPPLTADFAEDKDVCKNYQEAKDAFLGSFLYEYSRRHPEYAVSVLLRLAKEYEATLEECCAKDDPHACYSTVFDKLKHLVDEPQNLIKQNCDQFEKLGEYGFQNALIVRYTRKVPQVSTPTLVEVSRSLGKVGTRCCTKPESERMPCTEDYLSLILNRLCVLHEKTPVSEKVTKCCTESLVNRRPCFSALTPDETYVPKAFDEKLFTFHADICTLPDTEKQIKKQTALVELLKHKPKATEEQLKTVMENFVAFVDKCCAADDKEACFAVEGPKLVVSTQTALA
Procedure: (§1) After two selection rounds, monoclonal phage were screened for binding on HSA versus negative control antigen, ovalbumin (A5378, Sigma). Wells of a Maxisorp microtiter plate (Nunc) were coated using 10 μg/mL HSA or ovalbumin and blocked with SuperBlock T20 PBS Blocking Buffer (Pierce) to prevent non-specific binding. Phages, produced in 96-well plate, were diluted 1/10 in 1:1 (v:v) Superblock T20 PBS Blocking Buffer:PBS+0.05% Tween-20 and incubated on both HSA and ovalbumin. Bound phages were detected using anti-M13 (GE Healthcare) and goat anti-mouse IRDye700 (Rockland) and signals were read-out on Odyssey (LI-COR Biosciences). […] Both ‘hits’ were selected from the same library, i.e. originating from llama 117 in the non-constrained format. […] This peptide is referred to as 17D12. Its full amino acid sequence is given in SEQ ID NO: 1, and its encoding nucleotide sequence is given in SEQ ID NO:2. The amino acid sequence of the CDR3 loop is given in SEQ ID NO:3.
(§2) Binding of 17D12, as selected from primary screening after 2 selection rounds on HSA, to serum albumin of different species [mouse serum albumin (MSA, A3559, Sigma), cynomolgus serum albumin (CSA, in-house production), bovine serum albumin (BSA, A6003, Sigma) and HSA] and to negative control antigens [ovalbumin, human tumor necrosis factor α (TNF, in-house production)] was assessed using different phage concentrations. Additionally, similar binding studies were performed with two truncated variants of 17D12. Both peptides, i.e. 17D12-CDR3-NC (SEQ ID NO: 26) and 17D12-CDR3-C (SEQ ID NO;27), lack the flanking FR residues of 17D12 and the former is a non-constrained loop, whereas the latter is constrained (FIG. 4).
(§3) The phage binding assay was performed essentially as described in example 4.

[2] = biological target: T4, human serum albumin (HSA) (Homo sapiens, UniProt P02768); test: Phage binding assay: peptide expressed on pIII of M13 phage, on coated HSA (anti-M13 detection, Odyssey read-out); details: for Binding to HSA (Example 4): 1/2 dilution series starting with 7.5×10^11 phages/mL; for Binding to HSA (Example 5, cross-reactivity): different phage concentrations; for Binding to HSA (Example 7, VHH fusions on phage): 1/2 dilution series starting with 10^12 phages/mL
T4 construct: purchased Sigma A5763
Procedure: as §1
(§4) The phage binding assay was performed essentially as described in example 3. Phages, produced in 10 mL culture volume, were incubated on both HSA and ovalbumin in a ½ dilution series, starting with 7.5×10^11 phages/mL. […] Non-specific binding to ovalbumin is slightly higher for the constrained truncated peptide.
as §2, §3
(§5) The phage binding assay to HSA and ovalbumin was performed essentially as described in example 4. Phages, produced in 10 mL culture volume, were incubated on both HSA and ovalbumin in a ½ dilution series, starting with 10^12 phages/mL.

[3] = biological target: T5, cynomolgus serum albumin (CSA) (Macaca fascicularis, UniProt A2V9Z4); test: Phage binding assay, cross-reactivity to cynomolgus serum albumin; details: different phage concentrations
T5 construct: made in house
T5 sequence (A2V9Z4 25-608): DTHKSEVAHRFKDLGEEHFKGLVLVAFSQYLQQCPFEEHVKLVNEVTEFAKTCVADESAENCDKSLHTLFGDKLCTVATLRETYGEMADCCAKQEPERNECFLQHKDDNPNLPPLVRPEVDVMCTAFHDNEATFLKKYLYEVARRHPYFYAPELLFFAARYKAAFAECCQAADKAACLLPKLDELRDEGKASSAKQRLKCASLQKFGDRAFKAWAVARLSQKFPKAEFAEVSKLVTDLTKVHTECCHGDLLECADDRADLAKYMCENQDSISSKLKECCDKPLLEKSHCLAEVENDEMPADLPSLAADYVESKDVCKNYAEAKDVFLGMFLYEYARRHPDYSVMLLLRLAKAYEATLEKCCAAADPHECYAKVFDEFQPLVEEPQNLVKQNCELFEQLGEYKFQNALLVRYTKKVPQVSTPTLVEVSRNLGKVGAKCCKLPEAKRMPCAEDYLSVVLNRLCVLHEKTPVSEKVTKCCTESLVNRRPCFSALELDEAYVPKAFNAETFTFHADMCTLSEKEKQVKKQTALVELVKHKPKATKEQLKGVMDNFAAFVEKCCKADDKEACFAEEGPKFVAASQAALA
Procedure: as §1, §2, §3

[4] = biological target: T6, human tumor necrosis factor α (TNF) (Homo sapiens, UniProt P01375); test: Phage binding assay, specificity against negative control antigen TNF; details: different phage concentrations
T6 construct: made in house
T6 sequence (P01375 77-233 limits assumed): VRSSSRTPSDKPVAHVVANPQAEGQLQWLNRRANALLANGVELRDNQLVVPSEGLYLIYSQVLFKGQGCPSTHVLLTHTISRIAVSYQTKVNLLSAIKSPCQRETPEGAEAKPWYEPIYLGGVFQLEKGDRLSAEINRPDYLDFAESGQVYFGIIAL
Procedure: as §1, §2, §3

[5] = biological target: T7, mouse serum albumin (MSA) (Mus musculus, UniProt P07724); test: Phage binding assay, cross-reactivity to mouse serum albumin; details: different phage concentrations
T7 construct: purchased Sigma A3559
T7 sequence (P07724 25-608): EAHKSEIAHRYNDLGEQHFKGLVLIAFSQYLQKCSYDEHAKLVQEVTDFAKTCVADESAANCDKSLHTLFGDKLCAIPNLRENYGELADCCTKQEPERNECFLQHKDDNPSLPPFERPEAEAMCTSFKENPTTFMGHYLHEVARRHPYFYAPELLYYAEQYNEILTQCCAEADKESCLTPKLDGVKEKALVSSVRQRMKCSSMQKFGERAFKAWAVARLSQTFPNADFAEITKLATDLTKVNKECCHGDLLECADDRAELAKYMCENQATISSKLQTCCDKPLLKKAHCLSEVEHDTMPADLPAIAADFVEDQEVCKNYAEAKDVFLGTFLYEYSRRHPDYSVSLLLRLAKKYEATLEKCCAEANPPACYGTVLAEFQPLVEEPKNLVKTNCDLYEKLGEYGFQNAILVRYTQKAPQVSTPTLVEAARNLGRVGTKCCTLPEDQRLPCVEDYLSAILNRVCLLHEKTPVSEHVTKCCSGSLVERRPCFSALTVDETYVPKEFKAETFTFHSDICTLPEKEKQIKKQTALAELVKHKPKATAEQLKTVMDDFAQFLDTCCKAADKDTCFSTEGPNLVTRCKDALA
Procedure: as §1, §2, §3

ovalbumin = biological target: T1, ovalbumin; test: Phage binding assay on coated negative control antigen ovalbumin; details: for Binding to negative control ovalbumin (Example 4): 1/2 dilution series starting with 7.5×10^11 phages/mL; for Non-specific binding to irrelevant protein ovalbumin (Example 5): different phage concentrations; for Binding to negative control ovalbumin (Example 7): 1/2 dilution series starting with 10^12 phages/mL
Procedure: as §1, §4, §2, §3, §5

[6] = biological target: T2, ovalbumin (negative control antigen); test: phage binding assay: ovalbumin coated on Maxisorp, M13 phage in 1/2 dilution series from 10^12 phages/mL, Odyssey intensity
Procedure: The phage binding assay to HSA and ovalbumin was performed essentially as described in example 4. Phages, produced in 10 mL culture volume, were incubated on both HSA and ovalbumin in a ½ dilution series, starting with 10¹² phages/mL. Dose-dependent binding to HSA was retained upon fusion of the peptide 17D12 at the C-terminus of a non-albumin binding intact VHH in the presence or absence of a GlySer linker (FIG. 9).

human serum albumin = biological target: T8, human serum albumin (human, UniProt P02768 25-609); test: phage binding assay: 10 µg/mL HSA coated on Maxisorp, M13 phage displaying the peptide on pIII in 1/2 dilution series, anti-M13 + goat anti-mouse IRDye700, Odyssey intensity
T8 construct: Bought protein; also called HSA
Procedure: After two selection rounds, monoclonal phage were screened for binding on HSA versus negative control antigen, ovalbumin (A5378, Sigma). Wells of a Maxisorp microtiter plate (Nunc) were coated using 10 μg/mL HSA or ovalbumin and blocked with SuperBlock T20 PBS Blocking Buffer (Pierce) to prevent non-specific binding. Phages, produced in 96-well plate, were diluted 1/10 in 1:1 (v:v) Superblock T20 PBS Blocking Buffer:PBS+0.05% Tween-20 and incubated on both HSA and ovalbumin. Bound phages were detected using anti-M13 (GE Healthcare) and goat anti-mouse IRDye700 (Rockland) and signals were read-out on Odyssey (LI-COR Biosciences). […] This peptide is referred to as 17D12. Its full amino acid sequence is given in SEQ ID NO: 1, and its encoding nucleotide sequence is given in SEQ ID NO:2. The amino acid sequence of the CDR3 loop is given in SEQ ID NO:3.
as §4, with “7.5×10¹¹” for “7.5×10^11”

bovine serum albumin = biological target: T9, bovine serum albumin (bovine, UniProt P02769 25-607); test: phage binding assay on coated Maxisorp wells, 5 phage dilutions per peptide, Odyssey image
T9 construct: also called BSA
T9 sequence (P02769 25-607 limits assumed): as the sequence (P02769 25-607) above
Procedure: as §2
(§6) The phage binding assay was performed essentially as described in example 4. Full length 17D12 peptide as well as truncated peptides, 17D12-CDR3-NC and 17D12-CDR3-C, bind dose-dependently to HSA and CSA, whereas reactivity to MSA and BSA was not apparent in the assay performed (FIG. 6). There is no significant non-specific binding of 17D12 and 17D12-CDR3-NC to irrelevant proteins tested (ovalbumin and TNF). In contrast, there is a subtle degree of non-specific binding with the constrained truncated peptide.

mouse serum albumin = biological target: T10, mouse serum albumin (mouse, UniProt P07724 25-608); test: as above
T10 construct: also called MSA
T10 sequence (P07724 25-608 limits assumed): as the sequence (P07724 25-608) above
Procedure: as §2, §6

cynomolgus serum albumin = biological target: T11, cynomolgus serum albumin (cynomolgus, UniProt A2V9Z4 25-608); test: phage binding assay on coated Maxisorp wells, 5 phage dilutions per peptide (concentrations not given), Odyssey image
T11 construct: also called CSA; cynoSA
T11 sequence (A2V9Z4 25-608 limits assumed): as the sequence (A2V9Z4 25-608) above
Procedure: as §2, §6

Molecule | Reactivity to BSA [1] | Binding to HSA (Example 4) [2] | Binding to HSA (Example 5, cross-reactivity) [2] | Binding to CSA [3] | Non-specific binding to irrelevant protein TNF [4] | Reactivity to MSA [5] | Binding to negative control ovalbumin (Example 4) (ovalbumin) | Non-specific binding to irrelevant protein ovalbumin (Example 5) (ovalbumin) | Binding to HSA (Example 7, VHH fusions on phage) [2] | Binding to negative control ovalbumin (Example 7) (ovalbumin) | other results
aaasysdydvfgggtdfgpa (AAASYSDYDVFGGGTDFGPA; also: displayed on M13 pIII) [17D12-CDR3-NC, truncated 17D12 lacking flanking FR residues, non-constrained loop, on M13 phage] | not apparent | bind dose-dependently to HSA | bind dose-dependently | bind dose-dependently | no significant non-specific binding | not apparent | not to negative control peptide, ovalbumin | no significant non-specific binding |  |  | 
caaasysdydvfgggtdfgpac (CAAASYSDYDVFGGGTDFGPAC; disulfide 1-22 (inferred); also: displayed on M13 phage pIII) [17D12-CDR3-C, truncated 17D12 lacking flanking FR residues, constrained loop, on M13 phage] | not apparent | bind dose-dependently to HSA | bind dose-dependently | bind dose-dependently | subtle degree of non-specific binding | not apparent | not to negative control peptide, ovalbumin | subtle degree of non-specific binding |  |  | 
2D3-17D12(S): 17D12 (FR3 Cys replaced with Ser) fused at C-terminus of VHH 2D3 without linker, on M13 phage (DTAVYYSNAAASYSDYDVFGGGTDFGPWGQGTQV; not fully specified (N-terminus); also: displayed on M13 phage) |  |  |  |  |  |  |  |  | bind dose-dependently to HSA | not to negative control peptide, ovalbumin | 
2D3-GlySer-17D12(S): 17D12 (FR3 Cys replaced with Ser) fused at C-terminus of VHH 2D3 via Gly4Ser-Gly3Ser linker, on M13 phage (GGGGSGGGSDTAVYYSNAAASYSDYDVFGGGTDFGPWGQGTQV; not fully specified (N-terminus); also: displayed on M13 phage) |  |  |  |  |  |  |  |  | bind dose-dependently to HSA | not to negative control peptide, ovalbumin | 
dtavyycnaaasysdydvfgggtdfgpwgqgtqv (DTAVYYCNAAASYSDYDVFGGGTDFGPWGQGTQV; also: displayed on M13 pIII; listed as Lama glama) [17D12] | not apparent | bind dose-dependently to HSA | bind dose-dependently | bind dose-dependently | no significant non-specific binding | not apparent | not to negative control peptide, ovalbumin | no significant non-specific binding | bind dose-dependently to HSA | not to negative control peptide, ovalbumin | Binding of monoclonal phage to HSA (screening) ([2]; screening after two selection rounds on HSA, phages diluted 1/10, signal/background ratio very low): bind to HSA; Binding of monoclonal phage to ovalbumin (screening) (ovalbumin; screening after two selection rounds on HSA, phages diluted 1/10): not to ovalbumin
B1 |  |  |  |  |  |  |  |  |  |  | binding result [6]: no binding (tested: 100 x10^10 phage/mL)
B2 |  |  |  |  |  |  |  |  |  |  | EC50 (read off the curve) (human serum albumin): ~6e+10 phage/mL; binding result (bovine serum albumin): no binding; binding result (mouse serum albumin): no binding; binding result (cynomolgus serum albumin): binds
B3 |  |  |  |  |  |  |  |  |  |  | binding result [6]: no binding (tested: 100 x10^10 phage/mL)
